Columns and labels:
in vivo = test: in vivo; set-up: species or system BALB/c nu/nu mice; settings: female, BALB/c nu/nu, mouse, total radioactivity
Method: (§1) For biodistribution studies, 16 female BALB/c nu/nu mice (age 15–16 weeks) bearing PC-3 xenografts (inoculated subcutaneously with 8 × 10^6 PC-3 cells three weeks before the experiment) were randomized into groups of four. The mice were intravenously injected into the tail vein with a mixture of [^64Cu]Cu-X-RM26 and [^57Co]Co-X-RM26 and were euthanized at 3 and 24 h p.i. Injected activity was adjusted to 300 kBq/mouse for ^64Cu- and 40 kBq/mouse for ^57Co-labeled conjugates. The total injected peptide mass was adjusted to 45 pmol/mouse (in 100 μL). Blood, kidney, pancreas, liver, lung, bone, muscle, tumor, spleen, stomach, small intestines, and the rest of the GI tract with content were collected, weighed, and their activity content was measured in a gamma-counter. The ^64Cu activities were determined from measurements performed on the day of the experiment, while the ^57Co activities were measured after two weeks to allow the ^64Cu to decay. Tissue uptake of the radiopeptides was calculated as a percent of injected dose per gram tissue (%ID/g), with exception of the GI tract for which tissue uptake was calculated as %ID per whole sample.

PC-3 xenografts = test: in vivo; set-up: species or system BALB/c nu/nu mice; settings: mouse; for Blood uptake / Kidney uptake / Liver uptake / Small int. uptake / Stomach uptake / Tumor uptake / Lung uptake / Pancreas uptake / GI tract uptake / Bone uptake / Spleen uptake: female, BALB/c nu/nu; for GI tract uptake: iv, 45 pmol/mouse
Method: as §1

Compound | Blood uptake (PC-3 xenografts; 3 h) | Kidney uptake (PC-3 xenografts; 3 h) | Liver uptake (PC-3 xenografts; 3 h) | Small int. uptake (PC-3 xenografts; 3 h) | Stomach uptake (PC-3 xenografts; 3 h) | Tumor uptake (PC-3 xenografts; 3 h) | Lung uptake (PC-3 xenografts; 24 h) | Pancreas uptake (PC-3 xenografts; 24 h) | GI tract uptake (PC-3 xenografts; 3 h) | GI tract uptake (PC-3 xenografts; 24 h) | Pancreas uptake (PC-3 xenografts; 3 h) | Blood uptake (PC-3 xenografts; 24 h) | Liver uptake (PC-3 xenografts; 24 h) | Tumor uptake (PC-3 xenografts; 24 h) | further results
CC(C)C[C@H](NC(=O)C[C@H](O)[C@H](CC(C)C)NC(=O)[C@H](Cc1c[nH]cn1)NC(=O)CNC(=O)[C@@H](NC(=O)[C@H](C)NC(=O)[C@H](Cc1c[nH]c2ccccc12)NC(=O)[C@H](CCC(N)=O)NC(=O)[C@@H](Cc1ccccc1)NC(=O)COCCOCCNC(=O)CN1CCN(CC(=O)O)CCN(CC(=O)O)CC1)C(C)C)C(N)=O [[^57Co]Co-NOTA-PEG2-RM26] | 0.02 %ID/g | 0.51 %ID/g | 0.06 %ID/g | 0.34 %ID/g | 0.59 %ID/g | 3.27 %ID/g | 0.02 %ID/g | 0.02 %ID/g | 0.26 %ID | 0.02 %ID |  |  |  |  | tissue uptake at 3 h (in vivo; Bone uptake): 0.11 %ID/g; tissue uptake at 24 h (in vivo; Muscle uptake): 0.01 %ID/g; tissue uptake at 24 h (in vivo; Spleen uptake): 0.04 %ID/g; tissue uptake at 24 h (in vivo; Tumor uptake): 0.31 %ID/g
CC(C)C[C@H](NC(=O)C[C@H](O)[C@H](CC(C)C)NC(=O)[C@H](Cc1c[nH]cn1)NC(=O)CNC(=O)[C@@H](NC(=O)[C@H](C)NC(=O)[C@H](Cc1c[nH]c2ccccc12)NC(=O)[C@H](CCC(N)=O)NC(=O)[C@@H](Cc1ccccc1)NC(=O)COCCOCCNC(=O)CN1CCN(CC(=O)O)CCN(CC(=O)O)CC1)C(C)C)C(N)=O [[^64Cu]Cu-NOTA-PEG2-RM26, metal not drawn] | 0.06 %ID/g |  | 0.59 %ID/g | 0.72 %ID/g | 1.19 %ID/g |  |  |  | 0.76 %ID | 0.07 %ID | 1.31 %ID/g | 0.04 %ID/g | 0.49 %ID/g | 0.42 %ID/g | tissue uptake at 24 h (in vivo; Bone uptake): 0.15 %ID/g; tissue uptake at 3 h (in vivo; Kidney uptake): 0.46 %ID/g; tissue uptake at 24 h (in vivo; Kidney uptake): 0.25 %ID/g; tissue uptake at 3 h (in vivo; Muscle uptake): 0.02 %ID/g; tissue uptake at 24 h (in vivo; Small int. uptake): 0.12 %ID/g; tissue uptake at 3 h (in vivo; Spleen uptake): 0.1 %ID/g; tissue uptake at 24 h (in vivo; Stomach uptake): 0.14 %ID/g; tissue uptake at 3 h (in vivo; Tumor uptake): 3.94 %ID/g
CC(C)C[C@H](NC(=O)C[C@H](O)[C@H](CC(C)C)NC(=O)[C@H](Cc1c[nH]cn1)NC(=O)CNC(=O)[C@@H](NC(=O)[C@H](C)NC(=O)[C@H](Cc1c[nH]c2ccccc12)NC(=O)[C@H](CCC(N)=O)NC(=O)[C@@H](Cc1ccccc1)NC(=O)COCCOCCNC(=O)CCC(C(=O)O)N1CCN(CC(=O)O)CCN(CC(=O)O)CC1)C(C)C)C(N)=O (stereo partly drawn) [[^64Cu]Cu-NODAGA-PEG2-RM26, metal not drawn] |  | 0.90 %ID/g | 0.28 %ID/g | 0.24 %ID/g | 0.27 %ID/g | 2.31 %ID/g | 0.04 %ID/g | 0.04 %ID/g | 1.02 %ID | 0.03 %ID | 0.27 %ID/g | 0.02 %ID/g | 0.16 %ID/g | 0.16 %ID/g | Bone uptake (PC-3 xenografts; 3 h): 0.08 %ID/g; Lung uptake (PC-3 xenografts; 3 h): 0.12 %ID/g; Spleen uptake (PC-3 xenografts; 3 h): 0.05 %ID/g; Bone uptake (PC-3 xenografts; 24 h): 0.13 %ID/g; Kidney uptake (PC-3 xenografts; 24 h): 0.12 %ID/g; Small int. uptake (PC-3 xenografts; 24 h): 0.05 %ID/g; Spleen uptake (PC-3 xenografts; 24 h): 0.02 %ID/g; Stomach uptake (PC-3 xenografts; 24 h): 0.08 %ID/g; Muscle uptake (PC-3 xenografts; 24 h): 0.00 %ID/g

— publication PMC7766840, “Preclinical Evaluation of the Copper-64 Labeled GRPR-Antagonist RM26 in Comparison with the Cobalt-55 Labeled Counterpart for PET-Imaging of Prostate Cancer” (Molecules, 2020)
